These results are taken from the supplement of paper PMC5998384.

The test system of data set [1] is HeLa Kyoto. Briefly: solubility in G1/S (NP-40 vs SDS abundance) (log2 ratio); higher = more soluble. The settings on record: cell cycle stage: G1/S.
Data set [2] relates to HeLa Kyoto. Kind of data set: melting temperature (median over replicates), in situ; higher = more thermally stable.
The subject of data set [3] is HeLa Kyoto. Briefly: solubility change mitosis vs G1/S (difference of NP-40 vs SDS log2 ratios) (log2 ratio difference); higher = more soluble in mitosis.
The test system of data set [4] is HeLa Kyoto. Briefly: thermal stability score vs G1/S (z-score of summed log2 fold changes over temperatures); higher = more thermally stable than in G1/S.
Setting [5] is: cell cycle stage: early G1 (4.5 h after nocodazole release).
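Throughout, for melting temperature (median over replicates), in situ: HeLa Kyoto cells synchronized by double thymidine or nocodazole block, proteins quantified by TMT10plex mass spectrometry, three independent biological replicates.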
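Throughout, for solubility change mitosis vs G1/S (difference of NP-40 vs SDS log2 ratios): synchronized HeLa Kyoto cells (double thymidine block for G1/S, nocodazole release for mitosis), protein amounts in NP-40 versus SDS lysates quantified by mass spectrometry, three biological replicates.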
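Throughout, for solubility in G1/S (NP-40 vs SDS abundance): HeLa Kyoto cells arrested at G1/S by double thymidine block, proteins quantified by TMT10plex mass spectrometry in mild NP-40 versus SDS extracts, three biological replicates.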
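Throughout, for thermal stability score vs G1/S (z-score of summed log2 fold changes over temperatures): synchronized HeLa Kyoto cells, proteins quantified by TMT10plex mass spectrometry, three biological replicates, mitosis taken 0.5 h after nocodazole release, G1/S directly after double thymidine block.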

Regarding “MVRKKNPPLRNVASEGEGQILEPIGTESKVSGKNKEFSADQMSENTDQSDAAELNHKEEHSLHVQDPSSSSKKDLKSAVLSEKAGFNYESPSKGGNFPSFPHDEVTDRNMLAFSSPAAGGVCEPLKSPQRAEADDPQDMACTPSGDSLETKEDQKMSPKATEETGQAQSGQANCQGLSPVSVASKNPQVPSDGGVRLNKSKTDLLVNDNPDPAPLSPELQDFKCNICGYGYYGNDPTDLIKHFRKYHLGLHNRTRQDAELDSKILALHNMVQFSHSKDFQKVNRSVFSGVLQDINSSRPVLLNGTYDVQVTSGGTFIGIGRKTPDCQGNTKYFRCKFCNFTYMGNSSTELEQHFLQTHPNKIKASLPSSEVAKPSEKNSNKSIPALQSSDSGDLGKWQDKITVKAGDDTPVGYSVPIKPLDSSRQNGTEATSYYWCKFCSFSCESSSSLKLLEHYGKQHGAVQSGGLNPELNDKLSRGSVINQNDLAKSSEGETMTKTDKSSSGAKKKDFSSKGAEDNMVTSYNCQFCDFRYSKSHGPDVIVVGPLLRHYQQLHNIHKCTIKHCPFCPRGLCSPEKHLGEITYPFACRKSNCSHCALLLLHLSPGAAGSSRVKHQCHQCSFTTPDVDVLLFHYESVHESQASDVKQEANHLQGSDGQQSVKESKEHSCTKCDFITQVEEEISRHYRRAHSCYKCRQCSFTAADTQSLLEHFNTVHCQEQDITTANGEEDGHAISTIKEEPKIDFRVYNLLTPDSKMGEPVSESVVKREKLEEKDGLKEKVWTESSSDDLRNVTWRGADILRGSPSYTQASLGLLTPVSGTQEQTKTLRDSPNVEAAHLARPIYGLAVETKGFLQGAPAGGEKSGALPQQYPASGENKSKDESQSLLRRRRGSGVFCANCLTTKTSLWRKNANGGYVCNACGLYQKLHSTPRPLNIIKQNNGEQIIRRRTRKRLNPEALQAEQLNKQQRGSNEEQVNGSPLERRSEDHLTESHQREIPLPSLSKYEAQGSLTKSHSAQQPVLVSQTLDIHKRMQPLHIQIKSPQESTGDPGNSSSVSEGKGSSERGSPIEKYMRPAKHPNYSPPGSPIEKYQYPLFGLPFVHNDFQSEADWLRFWSKYKLSVPGNPHYLSHVPGLPNPCQNYVPYPTFNLPPHFSAVGSDNDIPLDLAIKHSRPGPTANGASKEKTKAPPNVKNEGPLNVVKTEKVDRSTQDELSTKCVHCGIVFLDEVMYALHMSCHGDSGPFQCSICQHLCTDKYDFTTHIQRGLHRNNAQVEKNGKPKE [TRPS1]”, the “solubility in G1/S (log2)” value in the data set on HeLa Kyoto [1] stood at 0.00718. Besides, the melting temperature with HeLa Kyoto [2] (cell cycle stage: G1/S) came to 51.1 °C; in the data set on HeLa Kyoto [2] (cell cycle stage: mitosis), 51.9 °C. Also, the “solubility change mitosis (log2)” value in the data set on HeLa Kyoto [3] is -0.0534. The thermal stability score was determined as 0.487 in the data set with HeLa Kyoto [4] (setting [5]) and 0.962 with HeLa Kyoto [4] (cell cycle stage: mitosis).

For “MVRTKTWTLKKHFVGYPTNSDFELKTAELPPLKNGEVLLEALFLTVDPYMRVAAKRLKEGDTMMGQQVAKVVESKNVALPKGTIVLASPGWTTHSISDGKDLEKLLTEWPDTIPLSLALGTVGMPGLTAYFGLLEICGVKGGETVMVNAAAGAVGSVVGQIAKLKGCKVVGAVGSDEKVAYLQKLGFDVVFNYKTVESLEETLKKASPDGYDCYFDNVGGEFSNTVIGQMKKFGRIAICGAISTYNRTGPLPPGPPPEIVIYQELRMEAFVVYRWQGDARQKALKDLLKWVLEGKIQYKEYIIEGFENMPAAFMGMLKGDNLGKTIVKA [PTGR1]”, the “solubility in G1/S (log2)” value in the data set with HeLa Kyoto [1] came to 0.248. Also, the melting temperature in the data set with HeLa Kyoto [2] (cell cycle stage: G1/S) turned out to be 53.2 °C; in the data set with HeLa Kyoto [2] (cell cycle stage: mitosis), 53.5 °C. Also, in the data set on HeLa Kyoto [3], the “solubility change mitosis (log2)” value is -0.225. Further, the thermal stability score is 0.13 in the data set on HeLa Kyoto [4] (setting [5]) and -1.48 with HeLa Kyoto [4] (cell cycle stage: mitosis).

Consider “MVVFGYEAGTKPRDSGVVPVGTEEAPKVFKMAASMHGQPSPSLEDAKLRRPMVIEIIEKNFDYLRKEMTQNIYQMATFGTTAGFSGIFSNFLFRRCFKVKHDALKTYASLATLPFLSTVVTDKLFVIDALYSDNISKENCVFRSSLIGIVCGVFYPSSLAFTKNGRLATKYHTVPLPPKGRVLIHWMTLCQTQMKLMAIPLVFQIMFGILNGLYHYAVFEETLEKTIHEE [TMEM126B]”, for which, in the data set with HeLa Kyoto [1], the “solubility in G1/S (log2)” value is -0.0998. The melting temperature in the data set on HeLa Kyoto [2] (cell cycle stage: G1/S) is 55.9 °C; in the data set on HeLa Kyoto [2] (cell cycle stage: mitosis), 53.5 °C. The “solubility change mitosis (log2)” value in the data set with HeLa Kyoto [3] came out at 0.00498. Moreover, the values for the thermal stability score in the data set on HeLa Kyoto [4] (setting [5]) and in the data set on HeLa Kyoto [4] (cell cycle stage: mitosis) were 0.469 and -1.3, respectively.

“MVWKRLGALVMFPLQMIYLVVKAAVGLVLPAKLRDLSRENVLITGGGRGIGRQLAREFAERGARKIVLWGRTEKCLKETTEEIRQMGTECHYFICDVGNREEVYQTAKAVREKVGDITILVNNAAVVHGKSLMDSDDDALLKSQHINTLGQFWTTKAFLPRMLELQNGHIVCLNSVLALSAIPGAIDYCTSKASAFAFMESLTLGLLDCPGVSATTVLPFHTSTEMFQGMRVRFPNLFPPLKPETVARRTVEAVQLNQALLLLPWTMHALVILKSILPQAALEEIHKFSGTYTCMNTFKGRT [DHRS3]”: the “solubility in G1/S (log2)” value in the data set on HeLa Kyoto [1] is -0.137. The melting temperature with HeLa Kyoto [2] (cell cycle stage: G1/S) is 54 °C; with HeLa Kyoto [2] (cell cycle stage: mitosis), 53.1 °C. In the data set on HeLa Kyoto [3], the “solubility change mitosis (log2)” value was -0.135. Besides, the values for the thermal stability score in the data set with HeLa Kyoto [4] (setting [5]) and with HeLa Kyoto [4] (cell cycle stage: mitosis) were 0.157 and -0.582, respectively.

As for “MWGACKVKVHDSLATISITLRRYLRLGATMAKSKFEYVRDFEADDTCLAHCWVVVRLDGRNFHRFAEKHNFAKPNDSRALQLMTKCAQTVMEELEDIVIAYGQSDEYSFVFKRKTNWFKRRASKFMTHVASQFASSYVFYWRDYFEDQPLLYPPGFDGRVVVYPSNQTLKDYLSWRQADCHINNLYNTVFWALIQQSGLTPVQAQGRLQGTLAADKNEILFSEFNINYNNELPMYRKGTVLIWQKVDEVMTKEIKLPTEMEGKKMAVTRTRTKPVPLHCDIIGDAFWKEHPEILDEDS [THG1L]”, the “solubility in G1/S (log2)” value with HeLa Kyoto [1] is -0.0679. For the same sequence, the melting temperature with HeLa Kyoto [2] (cell cycle stage: G1/S) turned out to be 53.3 °C; in the data set on HeLa Kyoto [2] (cell cycle stage: mitosis), 53.5 °C. The “solubility change mitosis (log2)” value with HeLa Kyoto [3] is -0.0698. Besides, the thermal stability score with HeLa Kyoto [4] (setting [5]) is 0.242; in the data set with HeLa Kyoto [4] (cell cycle stage: mitosis), -0.354.
